Test results published in patent US20110190385A1 (UNIVERSITY OF CENTRAL FLORIDA RESEARCH FOUNDATION, published 2011).

Target: HIV-1 gp41 (Env of HIV-1 BaL) (HIV-1 BaL)
Assay: cell-based or functional assay

B1: RC-101 (single lysine congener of retrocyclin) (peptide)
peptide: cyclo(RCICGRGICRCICGKGIC)
modifications: disulfide (positions not given here); also: three disulfide bridges, pairing not given here
For B1, the “IC50 of inhibition of HIV-1 BaL entry in TZM-bl cells (luciferase)” value was 2 µg/mL.
